Measurements taken from US20120252718.

Biological target: cytochrome c (UniProt P62894)
Details: Cy3 fluorescence quenching, hyperbolic fit; cytochrome c source for this assay not stated

cytochrome c, sequence (P62894 2-105): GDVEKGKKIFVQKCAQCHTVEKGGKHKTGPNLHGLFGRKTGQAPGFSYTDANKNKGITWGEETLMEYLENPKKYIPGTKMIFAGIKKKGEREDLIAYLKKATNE

tRNACys 5'-Cy3
Kd: 3.5 µM
